In publication PMC9482650, “Quantitative fragmentomics allow affinity mapping of interactomes” (Nature Communications, 2022):

T1: APBA1_1, Q02410
T1 sequence (Q02410 651-752, limits assumed, looked up): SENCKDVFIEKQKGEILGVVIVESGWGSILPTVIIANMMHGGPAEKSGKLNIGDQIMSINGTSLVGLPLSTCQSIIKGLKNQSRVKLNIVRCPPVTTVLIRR

T2: DLG3_2, Q92796
T2 sequence (Q92796 221-321, limits assumed, looked up): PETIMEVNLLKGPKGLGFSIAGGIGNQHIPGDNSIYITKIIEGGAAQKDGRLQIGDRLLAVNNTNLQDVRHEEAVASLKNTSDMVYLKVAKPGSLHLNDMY

T3: DLG3_3, Q92796
T3 sequence (Q92796 374-475, limits assumed, looked up): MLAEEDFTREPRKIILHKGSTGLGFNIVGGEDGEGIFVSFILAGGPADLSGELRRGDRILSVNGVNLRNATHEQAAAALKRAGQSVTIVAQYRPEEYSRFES

T4: GRIP1_5, Q9Y3R0
T4 sequence (Q9Y3R0 568-668, limits assumed, looked up): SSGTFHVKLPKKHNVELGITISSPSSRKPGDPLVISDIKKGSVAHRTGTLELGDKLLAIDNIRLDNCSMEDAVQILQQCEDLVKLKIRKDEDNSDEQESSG

T5: LIN7A, O14910
T5 sequence (O14910 103-200, limits assumed, looked up): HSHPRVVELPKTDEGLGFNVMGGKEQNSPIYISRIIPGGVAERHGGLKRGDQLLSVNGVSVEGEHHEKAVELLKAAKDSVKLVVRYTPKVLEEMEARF

T6: MPDZ_5, O75970
T6 sequence (O75970 695-796, limits assumed, looked up): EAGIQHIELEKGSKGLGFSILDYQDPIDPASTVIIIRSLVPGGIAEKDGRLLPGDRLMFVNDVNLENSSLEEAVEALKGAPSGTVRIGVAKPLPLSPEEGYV

T7: MPP6, Q9NZW5
T7 sequence (Q9NZW5 125-219, limits assumed, looked up): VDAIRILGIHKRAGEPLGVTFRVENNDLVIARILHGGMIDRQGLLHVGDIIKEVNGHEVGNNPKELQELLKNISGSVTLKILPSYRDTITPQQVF

T8: RADIL, Q96JH8
T8 sequence (Q96JH8 971-1071, limits assumed, looked up): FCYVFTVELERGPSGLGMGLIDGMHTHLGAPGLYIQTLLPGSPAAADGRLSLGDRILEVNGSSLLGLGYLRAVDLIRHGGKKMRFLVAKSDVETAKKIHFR

T9: SHANK1, Q9Y566
T9 sequence (Q9Y566 658-767, limits assumed, looked up): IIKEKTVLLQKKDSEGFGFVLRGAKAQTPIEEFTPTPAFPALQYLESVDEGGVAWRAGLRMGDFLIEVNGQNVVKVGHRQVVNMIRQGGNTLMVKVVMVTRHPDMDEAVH

T10: SIPA1L2, Q9P2F8
T10 sequence (Q9P2F8 945-1036, limits assumed, looked up): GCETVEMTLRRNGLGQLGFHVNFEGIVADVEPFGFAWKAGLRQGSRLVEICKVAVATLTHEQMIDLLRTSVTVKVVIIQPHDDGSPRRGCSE

B1: SCN4B, Q8IWT1 (peptide)
chain: KAEEKPPSKV
B2: RCN2, Q14257 (peptide)
chain: HDDYFYHDEL
B3: SLC22A3, O75751 (peptide)
chain: KKTPVSRSHL
B4: KCNJ9, Q92806 (peptide)
chain: LPPPESESKV
B5: SLC5A12, Q1EHB4 (peptide)
chain: NNMAFETTHF

Columns and labels:
Test in all cases: holdup assay
Design in all cases: key: below the threshold = too weak to quantify, mostly under pKd 3.1 to 4
Details in all cases: plain residues with an end cap or a label only (N-terminal biotin on a linker: ado-ado)
APBA1_1, Q02410 = target: T1, APBA1_1, Q02410
ARHGEF12, Q9NZN5-2 = target: ARHGEF12, Q9NZN5-2
DLG2_2, Q15700 = target: DLG2_2, Q15700
DLG3_2, Q92796 = target: T2, DLG3_2, Q92796
DLG3_3, Q92796 = target: T3, DLG3_3, Q92796
DLG4_3, P78352 = target: DLG4_3, P78352
DLG5_1, Q8TDM6 = target: DLG5_1, Q8TDM6
FRMPD4, Q14CM0 = target: FRMPD4, Q14CM0
GORASP2, Q9H8Y8 = target: GORASP2, Q9H8Y8
GRASP, Q7Z6J2 = target: GRASP, Q7Z6J2
GRIP1_5, Q9Y3R0 = target: T4, GRIP1_5, Q9Y3R0
IL16_1, Q14005 = target: IL16_1, Q14005
LDB3, O75112 = target: LDB3, O75112
LIN7A, O14910 = target: T5, LIN7A, O14910
MAGI1_2, Q96QZ7 = target: MAGI1_2, Q96QZ7
MAGI2_2, Q86UL8 = target: MAGI2_2, Q86UL8
MAGI2_3, Q86UL8 = target: MAGI2_3, Q86UL8
MAGI3_2, Q5TCQ9 = target: MAGI3_2, Q5TCQ9
MPDZ_5, O75970 = target: T6, MPDZ_5, O75970
MPP6, Q9NZW5 = target: T7, MPP6, Q9NZW5
PDLIM1, O00151 = target: PDLIM1, O00151
RADIL, Q96JH8 = target: T8, RADIL, Q96JH8
SCRIB_2, Q14160 = target: SCRIB_2, Q14160
SCRIB_3, Q14160 = target: SCRIB_3, Q14160
SHANK1, Q9Y566 = target: T9, SHANK1, Q9Y566
SIPA1L2, Q9P2F8 = target: T10, SIPA1L2, Q9P2F8
TJP1_2, Q07157 = target: TJP1_2, Q07157
TJP2_1, Q9UDY2 = target: TJP2_1, Q9UDY2
Sequence of TJP2_1, Q9UDY2 (Q9UDY2 24-128): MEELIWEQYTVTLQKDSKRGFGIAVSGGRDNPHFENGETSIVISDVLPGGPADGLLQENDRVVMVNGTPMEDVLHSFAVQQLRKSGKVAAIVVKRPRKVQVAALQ

Sequence of TJP1_2, Q07157 (Q07157 181-274): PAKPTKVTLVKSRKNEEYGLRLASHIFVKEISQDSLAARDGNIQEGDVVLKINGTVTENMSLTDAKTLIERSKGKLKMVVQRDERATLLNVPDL
Sequence of LDB3, O75112 (O75112 1-94): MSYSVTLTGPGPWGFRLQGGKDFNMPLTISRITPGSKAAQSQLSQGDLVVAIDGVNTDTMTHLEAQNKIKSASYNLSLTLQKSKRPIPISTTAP
Sequence of SCRIB_3, Q14160 (Q14160 999-1103): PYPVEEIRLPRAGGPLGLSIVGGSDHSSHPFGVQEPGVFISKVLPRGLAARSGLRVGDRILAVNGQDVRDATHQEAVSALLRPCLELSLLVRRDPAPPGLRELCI
Sequence of PDLIM1, O00151 (O00151 1-87): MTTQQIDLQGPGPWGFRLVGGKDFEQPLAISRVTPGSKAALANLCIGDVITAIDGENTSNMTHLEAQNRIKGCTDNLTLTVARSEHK
Sequence of DLG2_2, Q15700 (Q15700 189-283): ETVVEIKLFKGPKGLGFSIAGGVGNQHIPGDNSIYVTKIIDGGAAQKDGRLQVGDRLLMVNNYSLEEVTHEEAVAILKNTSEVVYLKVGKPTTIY
Sequence of MAGI2_3, Q86UL8 (Q86UL8 600-682): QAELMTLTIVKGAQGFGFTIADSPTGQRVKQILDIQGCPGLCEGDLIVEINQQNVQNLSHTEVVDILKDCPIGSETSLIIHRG
Sequence of DLG5_1, Q8TDM6 (Q8TDM6 617-713): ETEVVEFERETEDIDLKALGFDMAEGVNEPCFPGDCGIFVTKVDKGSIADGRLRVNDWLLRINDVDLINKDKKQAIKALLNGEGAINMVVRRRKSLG
Sequence of MAGI3_2, Q5TCQ9 (Q5TCQ9 398-503): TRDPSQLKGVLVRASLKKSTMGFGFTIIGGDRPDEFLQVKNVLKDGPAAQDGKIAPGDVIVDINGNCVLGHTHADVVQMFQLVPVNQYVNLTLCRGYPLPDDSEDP
Sequence of MAGI1_2, Q96QZ7 (Q96QZ7 456-580): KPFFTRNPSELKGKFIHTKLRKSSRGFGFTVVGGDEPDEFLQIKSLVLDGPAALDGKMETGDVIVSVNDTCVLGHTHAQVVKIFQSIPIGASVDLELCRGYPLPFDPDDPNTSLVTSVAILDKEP
Sequence of GRASP, Q7Z6J2 (Q7Z6J2 96-193): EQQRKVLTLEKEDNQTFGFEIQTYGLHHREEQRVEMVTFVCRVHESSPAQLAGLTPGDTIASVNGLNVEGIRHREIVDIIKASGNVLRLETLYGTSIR
Sequence of DLG4_3, P78352 (P78352 306-403): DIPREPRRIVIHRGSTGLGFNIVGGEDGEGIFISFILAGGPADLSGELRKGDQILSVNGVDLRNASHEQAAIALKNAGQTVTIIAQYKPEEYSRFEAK
Sequence of ARHGEF12, Q9NZN5-2 (Q9NZN5 other isoform, or with tags, fused parts or gaps): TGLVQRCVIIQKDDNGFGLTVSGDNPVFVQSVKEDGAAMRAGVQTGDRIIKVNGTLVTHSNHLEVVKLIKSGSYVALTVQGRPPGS
Sequence of SCRIB_2, Q14160 (Q14160 857-960): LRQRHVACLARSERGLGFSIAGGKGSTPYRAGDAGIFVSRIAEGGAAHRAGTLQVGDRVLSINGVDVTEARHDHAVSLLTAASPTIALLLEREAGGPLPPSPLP
Sequence of MAGI2_2, Q86UL8 (Q86UL8 410-522): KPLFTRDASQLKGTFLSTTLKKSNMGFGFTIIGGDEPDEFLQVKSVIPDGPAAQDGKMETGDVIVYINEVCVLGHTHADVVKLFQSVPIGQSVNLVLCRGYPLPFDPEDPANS
Sequence of FRMPD4, Q14CM0 (Q14CM0 67-160): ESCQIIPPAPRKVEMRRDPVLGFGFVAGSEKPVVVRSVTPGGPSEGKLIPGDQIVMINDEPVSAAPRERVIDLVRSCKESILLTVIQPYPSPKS
Sequence of IL16_1, Q14005 (Q14005 210-306): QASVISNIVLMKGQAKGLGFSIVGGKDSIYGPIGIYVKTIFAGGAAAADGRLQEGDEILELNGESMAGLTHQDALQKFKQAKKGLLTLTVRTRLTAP

Binder | pKd (APBA1_1, Q02410) | pKd (ARHGEF12, Q9NZN5-2) | pKd (DLG2_2, Q15700) | pKd (DLG3_2, Q92796) | pKd (DLG3_3, Q92796) | pKd (DLG4_3, P78352) | pKd (DLG5_1, Q8TDM6) | pKd (FRMPD4, Q14CM0) | pKd (GORASP2, Q9H8Y8) | pKd (GRASP, Q7Z6J2) | pKd (GRIP1_5, Q9Y3R0) | pKd (IL16_1, Q14005) | pKd (LDB3, O75112) | pKd (LIN7A, O14910) | pKd (MAGI1_2, Q96QZ7) | pKd (MAGI2_2, Q86UL8) | pKd (MAGI2_3, Q86UL8) | pKd (MAGI3_2, Q5TCQ9) | pKd (MPDZ_5, O75970) | pKd (MPP6, Q9NZW5) | also measured
B1 | below the threshold | below the threshold | below the threshold | below the threshold | below the threshold | below the threshold | below the threshold | below the threshold | below the threshold | below the threshold | below the threshold | below the threshold | below the threshold | below the threshold | below the threshold | below the threshold | 3.48 | below the threshold | below the threshold | below the threshold | pKd (PDLIM1, O00151): below the threshold; pKd (RADIL, Q96JH8): below the threshold; pKd (SCRIB_2, Q14160): below the threshold; pKd (SCRIB_3, Q14160): below the threshold; pKd (SHANK1, Q9Y566): below the threshold; pKd (SIPA1L2, Q9P2F8): below the threshold; pKd (TJP1_2, Q07157): below the threshold; pKd (TJP2_1, Q9UDY2): below the threshold
B2 | below the threshold | below the threshold | below the threshold | below the threshold | below the threshold | 3.53 | below the threshold | 3.94 | below the threshold | 5.01 | below the threshold | below the threshold | 4.09 | below the threshold | below the threshold | below the threshold | below the threshold | below the threshold | below the threshold | 3.74 | pKd (PDLIM1, O00151): 3.83; pKd (RADIL, Q96JH8): 3.5; pKd (SCRIB_2, Q14160): below the threshold; pKd (SCRIB_3, Q14160): 3.81; pKd (SHANK1, Q9Y566): below the threshold; pKd (SIPA1L2, Q9P2F8): below the threshold; pKd (TJP1_2, Q07157): below the threshold; pKd (TJP2_1, Q9UDY2): below the threshold
B3 | below the threshold | 4.2 | below the threshold | below the threshold | below the threshold | below the threshold | below the threshold | 3.58 | below the threshold | 4.38 | below the threshold | below the threshold | below the threshold | below the threshold | 3.62 | below the threshold | below the threshold | below the threshold | below the threshold | below the threshold | pKd (PDLIM1, O00151): below the threshold; pKd (RADIL, Q96JH8): below the threshold; pKd (SCRIB_2, Q14160): below the threshold; pKd (SCRIB_3, Q14160): below the threshold; pKd (SHANK1, Q9Y566): 4.54; pKd (SIPA1L2, Q9P2F8): 3.53; pKd (TJP1_2, Q07157): below the threshold; pKd (TJP2_1, Q9UDY2): below the threshold
B4 | below the threshold | below the threshold | below the threshold | 4.23 | below the threshold | below the threshold | below the threshold | below the threshold | below the threshold | below the threshold | below the threshold | 4.11 | below the threshold | below the threshold | below the threshold | below the threshold | 3.64 | 4 | below the threshold | below the threshold | pKd (PDLIM1, O00151): below the threshold; pKd (RADIL, Q96JH8): below the threshold; pKd (SCRIB_2, Q14160): below the threshold; pKd (SCRIB_3, Q14160): below the threshold; pKd (SHANK1, Q9Y566): below the threshold; pKd (SIPA1L2, Q9P2F8): below the threshold; pKd (TJP1_2, Q07157): below the threshold; pKd (TJP2_1, Q9UDY2): below the threshold
B5 | below the threshold | below the threshold | below the threshold | 4.08 | below the threshold | below the threshold | below the threshold | below the threshold | below the threshold | 4.8 | below the threshold | below the threshold | below the threshold | 3.74 | below the threshold | below the threshold | below the threshold | below the threshold | below the threshold | below the threshold | pKd (PDLIM1, O00151): below the threshold; pKd (RADIL, Q96JH8): below the threshold; pKd (SCRIB_2, Q14160): below the threshold; pKd (SCRIB_3, Q14160): 4.02; pKd (SHANK1, Q9Y566): 5.81; pKd (SIPA1L2, Q9P2F8): below the threshold; pKd (TJP1_2, Q07157): below the threshold; pKd (TJP2_1, Q9UDY2): below the threshold
